Experimental findings from article PMC11574312, “The role of ATP-binding Cassette subfamily B member 6 in the inner ear” (Nature Communications, 2024) are described below.

The data set concerns the molecule itself. Briefly: cryo-EM structure; ABCB6 WT purified in DDM/CHS, about 3.6 mg/mL on grids; apo, inward-facing; final refinement with C2 symmetry applied.

B1: human ATP-binding cassette sub-family B member 6 (ABCB6) WT-Flag (natural protein)
chain: MVTVGNYCEAEGPVGPAWMQDGLSPCFFFTLVPSTRMALGTLALVLALPCRRRERPAGADSLSWGAGPRISPYVLQLLLATLQAALPLAGLAGRVGTARGAPLPSYLLLASVLESLAGACGLWLLVVERSQARQRLAMGIWIKFRHSPGLLLLWTVAFAAENLALVSWNSPQWWWARADLGQQVQFSLWVLRYVVSGGLFVLGLWAPGLRPQSYTLQVHEEDQDVERSQVRSAAQQSTWRDFGRKLRLLSGYLWPRGSPALQLVVLICLGLMGLERALNVLVPIFYRNIVNLLTEKAPWNSLAWTVTSYVFLKFLQGGGTGSTGFVSNLRTFLWIRVQQFTSRRVELLIFSHLHELSLRWHLGRRTGEVLRIADRGTSSVTGLLSYLVFNVIPTLADIIIGIIYFSMFFNAWFGLIVFLCMSLYLTLTIVVTEWRTKFRRAMNTQENATRARAVDSLLNFETVKYYNAESYEVERYREAIIKYQGLEWKSSASLVLLNQTQNLVIGLGLLAGSLLCAYFVTEQKLQVGDYVLFGTYIIQLYMPLNWFGTYYRMIQTNFIDMENMFDLLKEETEVKDLPGAGPLRFQKGRIEFENVHFSYADGRETLQDVSFTVMPGQTLALVGPSGAGKSTILRLLFRFYDISSGCIRIDGQDISQVTQASLRSHIGVVPQDTVLFNDTIADNIRYGRVTAGNDEVEAAAQAAGIHDAIMAFPEGYRTQVGERGLKLSGGEKQRVAIARTILKAPGIILLDEATSALDTSNERAIQASLAKVCANRTTIVVAHRLSTVVNADQILVIKDGCIVERGRHEALLSRGGVYADMWQLQQGQEETSEDTKPQTMER
notes: ABCB6, human, UniProt Q9NP58; the preparation holds the N-terminal TMD0, but the final model has no density for it; The protein was eluted from Flag resin with 3X Flag peptide and no tag cleavage is described
Take B1: the binding result is “binds”.
